According to patent US20260258084A1, “New Peptides as Selective IL-23 Receptor Antagonists” (Sanofi, priority 2022, published 2026):
One block for each binder: values may come before it. Starred links: 1 amine or outer side, 2 acyl side, 3 side chain; linkers in the order of their positions; H or OH if unused. Positions of bridges follow the written chain, without caps; N, C: chain ends. Non-standard residues stand in square brackets, D forms with d. Yde = (2S)-2-amino-3-[4-[2-(dimethylamino)ethoxy]phenyl]propanoic acid, CN(C)CCOc1ccc(C[C@H](N[*:1])C(=O)[*:2])cc1; NdmK = (2S)-6-amino-2-(dimethylamino)hexanoic acid, CN(C)[C@@H](CCCCN[*:3])C(=O)[*:2]; Nmha = 6-(methylamino)hexanoic acid, CN(CCCCCC(=O)[*:2])[*:1]; Phe(4-OMe) = COc1ccc(C[C@H](N[*:1])C(=O)[*:2])cc1; Trp(7-Me) = Cc1cccc2c(C[C@H](N)C(=O)O)c[nH]c12; αMeLys(Me2) = CN(C)CCCC[C@](C)(N)C(=O)O; 2Nal = N[C@@H](Cc1ccc2ccccc2c1)C(=O)O; εLys = N[C@@H](CCCCN[*:1])C(=O)[*:2]; AEF = NCCOc1ccc(C[C@H](N)C(=O)O)cc1; 3Pal = N[C@@H](Cc1cccnc1)C(=O)O; αMeL = CC(C)C[C@](C)(N)C(=O)O; Nmapt = not defined here; Thp = NC1(C(=O)O)CCOCC1; Aib = CC(C)(N)C(=O)O; Ahx = NCCCCCC(=O)O; Ava = NCCCCC(=O)O; Sar = CNCC(=O)O

Biological target: T1, IL-23 receptor on the surface of HEK-Blue IL-23 cells (UniProt Q5VWK5 24-629, limits assumed)
T1 sequence (looked up): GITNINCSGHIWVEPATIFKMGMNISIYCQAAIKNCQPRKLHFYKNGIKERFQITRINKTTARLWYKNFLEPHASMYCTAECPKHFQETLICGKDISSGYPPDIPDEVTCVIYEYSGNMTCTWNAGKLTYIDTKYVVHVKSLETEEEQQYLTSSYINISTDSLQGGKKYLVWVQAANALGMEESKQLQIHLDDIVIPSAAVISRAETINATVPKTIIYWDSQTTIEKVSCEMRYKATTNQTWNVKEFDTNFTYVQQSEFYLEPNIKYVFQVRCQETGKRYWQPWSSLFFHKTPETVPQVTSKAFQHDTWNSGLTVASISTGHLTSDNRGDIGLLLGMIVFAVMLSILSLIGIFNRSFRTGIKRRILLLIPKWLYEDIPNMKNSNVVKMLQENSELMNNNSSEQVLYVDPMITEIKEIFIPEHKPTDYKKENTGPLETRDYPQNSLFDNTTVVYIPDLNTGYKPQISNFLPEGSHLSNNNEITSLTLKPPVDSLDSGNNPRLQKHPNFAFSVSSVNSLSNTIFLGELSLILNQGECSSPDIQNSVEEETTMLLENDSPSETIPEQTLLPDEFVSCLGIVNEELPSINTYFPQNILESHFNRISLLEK
Assay: cell-based or functional assay

B3: Compound of SEQ ID NO: 32 (peptide)
peptide: [Ava]C[εLys](Ac)WQC[Yde][2Nal][Aib]EAG-NH2
modifications: lactam N-10; disulfide 2-6; also: Cys2 carboxyl bonded to Lys3 epsilon-NH2 (isopeptide), Lys3 alpha-N acetylated
- pSTAT3 (nM): 20.5 nM

B6: Compound of SEQ ID NO: 43 (peptide)
peptide: [Ava]CNT[Trp(7-Me)]QC[Yde][2Nal][Aib]ESH-NH2
modifications: lactam N-11; disulfide 2-7
SMILES: Cc1cccc2c(C[C@@H]3NC(=O)[C@H]([C@@H](C)O)NC(=O)[C@H](CC(N)=O)NC(=O)[C@@H]4CSSC[C@H](NC(=O)[C@H](CCC(N)=O)NC3=O)C(=O)N[C@@H](Cc3ccc(OCCN(C)C)cc3)C(=O)N[C@@H](Cc3ccc5ccccc5c3)C(=O)NC(C)(C)C(=O)N[C@H](C(=O)N[C@@H](CO)C(=O)N[C@@H](Cc3c[nH]cn3)C(N)=O)CCC(=O)NCCCCC(=O)N4)c[nH]c12
- pSTAT3 (nM): 1.31 nM

Binder: [Ava]CNTWK(Ac)C[Yde][2Nal][Aib]ENNI-NH2 (lactam N-11; disulfide 2-7; also: places amidation at position 13, §1 lactam bridge; @2 disulfide bridge) [Compound of SEQ ID NO: 38]
- pSTAT3 (nM): 11.9 nM

B7: Compound of SEQ ID NO: 57 (peptide)
peptide: [Ava]CNTWQC[Yde][2Nal][Aib]ENNI-NH2
modifications: lactam N-11; disulfide 2-7
SMILES: CC[C@H](C)[C@H](NC(=O)[C@H](CC(N)=O)NC(=O)[C@H](CC(N)=O)NC(=O)[C@@H]1CCC(=O)NCCCCC(=O)N[C@H]2CSSC[C@H](NC(=O)[C@H](CCC(N)=O)NC(=O)[C@H](Cc3c[nH]c4ccccc34)NC(=O)[C@H]([C@@H](C)O)NC(=O)[C@H](CC(N)=O)NC2=O)C(=O)N[C@@H](Cc2ccc(OCCN(C)C)cc2)C(=O)N[C@@H](Cc2ccc3ccccc3c2)C(=O)NC(C)(C)C(=O)N1)C(N)=O
notes: §1 lactam bridge; @2 disulfide bridge
- pSTAT3 (nM): 5.5 nM

B9: Compound of SEQ ID NO: 39 (peptide)
peptide: [Ahx]E[Ava]WQT[Phe(4-OMe)][2Nal][Aib]DNN-NH2
modifications: lactam N-10; ester 2-6
SMILES: COc1ccc(C[C@@H]2NC(=O)[C@H]3NC(=O)[C@H](CCC(N)=O)NC(=O)[C@H](Cc4c[nH]c5ccccc45)NC(=O)CCCCNC(=O)[C@H](CCC(=O)O[C@@H]3C)NC(=O)CCCCCNC(=O)C[C@@H](C(=O)N[C@@H](CC(N)=O)C(=O)N[C@@H](CC(N)=O)C(N)=O)NC(=O)C(C)(C)NC(=O)[C@H](Cc3ccc4ccccc4c3)NC2=O)cc1
- pSTAT3 (nM): 26.4 nM

B10: Compound of SEQ ID NO: 34 (peptide)
peptide: [Nmapt]CKWQC[AEF][2Nal][Thp]EA[dL]-NH2
modifications: lactam N-10; disulfide 2-6; not fully specified (residue 3); printed as Nmapt(§1)-C(§3)(@2)-K[aAc](@3)-W-Q-C(@2)-Yae-Nal-Thp-E(§1)-A-(D-Leu)-NH2; reading uncertain; also: Cys2 carboxyl joined to Lys3 epsilon-NH2 (isopeptide bond)
- pSTAT3 (nM): 13.3 nM

B12: Compound of SEQ ID NO: 30 (peptide)
peptide: [Ava]C[εLys](Ac)WQC[Yde][2Nal][Thp]ENG-NH2
modifications: lactam N-10; disulfide 2-6; also: Cys2 carboxyl bonded to Lys3 epsilon-NH2 (isopeptide), Lys3 alpha-N acetylated
- pSTAT3 (nM): 5.41 nM

Binder: [Ava]CNTWK(Ac)C[Yde][2Nal][Aib]EN[3Pal]I-NH2 (lactam N-11; disulfide 2-7; also: places amidation at position 13) [Compound of SEQ ID NO: 37]
- pSTAT3 (nM): 2 nM

Continued, values first:

- pSTAT3 (nM): 17.2 nM
B1: Compound of SEQ ID NO: 3 (peptide)
peptide: [Ahx]CNTWQC[Phe(4-OMe)][2Nal][Aib]DNN-NH2
modifications: lactam N-11; disulfide 2-7
SMILES: COc1ccc(C[C@@H]2NC(=O)[C@@H]3CSSC[C@H](NC(=O)CCCCCNC(=O)C[C@@H](C(=O)N[C@@H](CC(N)=O)C(=O)N[C@@H](CC(N)=O)C(N)=O)NC(=O)C(C)(C)NC(=O)[C@H](Cc4ccc5ccccc5c4)NC2=O)C(=O)N[C@@H](CC(N)=O)C(=O)N[C@@H]([C@@H](C)O)C(=O)N[C@@H](Cc2c[nH]c4ccccc24)C(=O)N[C@@H](CCC(N)=O)C(=O)N3)cc1

- pSTAT3 (nM): 0.67 nM
B2: Compound of SEQ ID NO: 45 (peptide)
peptide: [Ava]CNT[Trp(7-Me)]K(Ac)C[Yde][2Nal][Aib]ENH[Sar]-NH2
modifications: lactam N-11; disulfide 2-7
SMILES: CC(=O)NCCCC[C@@H]1NC(=O)[C@H](Cc2c[nH]c3c(C)cccc23)NC(=O)[C@H]([C@@H](C)O)NC(=O)[C@H](CC(N)=O)NC(=O)[C@@H]2CSSC[C@H](NC1=O)C(=O)N[C@@H](Cc1ccc(OCCN(C)C)cc1)C(=O)N[C@@H](Cc1ccc3ccccc3c1)C(=O)NC(C)(C)C(=O)N[C@H](C(=O)N[C@@H](CC(N)=O)C(=O)N[C@@H](Cc1c[nH]cn1)C(=O)N(C)CC(N)=O)CCC(=O)NCCCCC(=O)N2

- pSTAT3 (nM): 13.9 nM
Binder: [Ava]C[NdmK]WK(Ac)C[Yde][2Nal][αMeLys(Me2)]EN[3Pal][Sar]-NH2 (lactam N-10; disulfide 2-6) [Compound of SEQ ID NO: 36]

- pSTAT3 (nM): 42.5 nM
B4: Compound of SEQ ID NO: 44 (peptide)
peptide: [Nmapt]CKWQC[AEF][2Nal][αMeL]EA[dL]-NH2
modifications: lactam N-10; disulfide 2-6; not fully specified (residue 3); printed as Nmapt(§1)-C(§3)(@2)-K[aAc](@3)-W-Q-C(@2)-Yae-Nal-Mle-E(§1)-A-(D-Leu)-NH2; reading uncertain; also: Cys2 carboxyl joined to Lys3 epsilon-NH2 (isopeptide bond)

- pSTAT3 (nM): 8.16 nM
B5: Compound of SEQ ID NO: 29 (peptide)
peptide: [Ava]C[εLys](Ac)WQC[Yde][2Nal][Aib]ENG-NH2
modifications: lactam N-10; disulfide 2-6; also: Cys2 carboxyl bonded to Lys3 epsilon-NH2 (isopeptide), Lys3 alpha-N acetylated

- pSTAT3 (nM): 1.71 nM
B8: Compound of SEQ ID NO: 27 (peptide)
peptide: [Ava]CNTWQC[Yde][2Nal][αMeL]ENN-NH2
modifications: lactam N-11; disulfide 2-7
SMILES: CC(C)C[C@]1(C)NC(=O)[C@H](Cc2ccc3ccccc3c2)NC(=O)[C@H](Cc2ccc(OCCN(C)C)cc2)NC(=O)[C@@H]2CSSC[C@H](NC(=O)CCCCNC(=O)CC[C@@H](C(=O)N[C@@H](CC(N)=O)C(=O)N[C@@H](CC(N)=O)C(N)=O)NC1=O)C(=O)N[C@@H](CC(N)=O)C(=O)N[C@@H]([C@@H](C)O)C(=O)N[C@@H](Cc1c[nH]c3ccccc13)C(=O)N[C@@H](CCC(N)=O)C(=O)N2

- pSTAT3 (nM): 34.8 nM
B11: Compound of SEQ ID NO: 4 (peptide)
peptide: [Ava]CNTWQC[Phe(4-OMe)][2Nal][Aib]ENG-NH2
modifications: lactam N-11; disulfide 2-7
SMILES: COc1ccc(C[C@@H]2NC(=O)[C@@H]3CSSC[C@H](NC(=O)CCCCNC(=O)CC[C@@H](C(=O)N[C@@H](CC(N)=O)C(=O)NCC(N)=O)NC(=O)C(C)(C)NC(=O)[C@H](Cc4ccc5ccccc5c4)NC2=O)C(=O)N[C@@H](CC(N)=O)C(=O)N[C@@H]([C@@H](C)O)C(=O)N[C@@H](Cc2c[nH]c4ccccc24)C(=O)N[C@@H](CCC(N)=O)C(=O)N3)cc1

- pSTAT3 (nM): 5.23 nM
B13: Compound of SEQ ID NO: 31 (peptide)
peptide: [Ava]C[εLys](Ac)WQC[Yde][2Nal][αMeL]ENG-NH2
modifications: lactam N-10; disulfide 2-6; also: Cys2 carboxyl bonded to Lys3 epsilon-NH2 (isopeptide), Lys3 alpha-N acetylated

- pSTAT3 (nM): 50.8 nM
B14: Compound of SEQ ID NO: 40 (peptide)
peptide: [Nmha]CNTWQC[Yde][2Nal][αMeL]DN[dL]-NH2
modifications: lactam N-11; disulfide 2-7
SMILES: CC(C)C[C@@H](NC(=O)[C@H](CC(N)=O)NC(=O)[C@@H]1CC(=O)N(C)CCCCCC(=O)N[C@H]2CSSC[C@H](NC(=O)[C@H](CCC(N)=O)NC(=O)[C@H](Cc3c[nH]c4ccccc34)NC(=O)[C@H]([C@@H](C)O)NC(=O)[C@H](CC(N)=O)NC2=O)C(=O)N[C@@H](Cc2ccc(OCCN(C)C)cc2)C(=O)N[C@@H](Cc2ccc3ccccc3c2)C(=O)N[C@@](C)(CC(C)C)C(=O)N1)C(N)=O

- pSTAT3 (nM): 53.8 nM
B15: Compound of SEQ ID NO: 33 (peptide)
peptide: [Ava]C[εLys](Ac)WQC[Yde][2Nal][Thp]EA[dL]-NH2
modifications: lactam N-10; disulfide 2-6; also: Cys2 carboxyl bonded to Lys3 epsilon-NH2 (isopeptide), Lys3 alpha-N acetylated
